# Laboratory results taken from article PMC9616921.
# B1: VEGF-C: N175,205W (protein)
# parent chain: MHLLGFFSVACSLLAAALLPGPREAPAAAAAFESGLDLSDAEPDAGEATAYASKDLEEQLRSVSSVDELMTVLYPEYWKMYKCQLRKGGWQHNREQANLNSRTEETIKFAAAHYNTEILKSIDNEWRKTQCMPREVCIDVGKEFGVATNTFFKPPCVSVYRCGGCCNSEGLQCMNTSTSYLSKTLFEITVPLSQGPKPVTISFANHTSCRCMSKLDVYRQVHSIIRRSLPATLPQCQAANKTCPTNYMWNNHICRCLAQEDFMFSSDAGDDSTDGFHDICGPNKELDEETCQCVCRAGLRPASCGPHKELDRNSCQCVCKNKLFPSQCGANREFDENTCQCVCKRTCPRNQPLNPGKCACECTESPQKCLLKGKKFHHQTCSCYRRPCTNRQKACEPGFSYSEEVCRCVPSYWKRPQMS
# B2: VEGF-C: N175,205Q (protein)
# parent chain: B1 parent chain
# Experiments:
# [1] = molecular target: minimal mature VEGF-C refolded from E. coli inclusion bodies (human); experiment: SEC; refolded, dialysed and concentrated material on Superdex 75 10/300 GL in PBS, 0.5-0.6 mL/min; calibrated with BSA, carbonic anhydrase and RNaseA; dimeric fractions 11.5-13.5 mL, monomeric fractions 13.5-15.5 mL
# [2] = IP of 35S-labelled 293T supernatants and lysates, SDS-PAGE; settings: glycan lost; control: wild type
molecule,measurement,setting,value
minimal mature VEGF-C refolded from E. coli inclusion bodies (domain or fragment),stoichiometry N,[1],2
B1,expression_or_secretion,[2],abolishes
B2,expression_or_secretion,[2],abolishes
